Assay results from paper PMC9029856, “Impact of Different [Tc(N)PNP]-Scaffolds on the Biological Properties of the Small cRGDfK Peptide: Synthesis, In Vitro and In Vivo Evaluations” (Molecules, 2022).
Where “and” joins values, the source holds several entries; their conditions need not be identical. Identical values can stand only once.

Assays:
[1] = test system: M21 (αvβ3-positive) and M21L (αvβ3-negative) melanoma tumors; format: in vivo, NSG mice; conditions: 120 min p.i.; for M21L tumor uptake: integrin-negative M21L control tumor; for M21 tumor uptake: integrin-positive M21 xenograft; for Blood / Heart / Intestine / Kidneys / Liver / Lungs / Muscle / Spleen / Stomach: tumor-bearing mice
Protocol: In vivo tumor uptake. The in vivo integrin targeting properties of the [^99mTcN(PNP)]-labeled peptide were evaluated in M21 (integrin-positive) and M21L (integrin-negative) melanoma-bearing mice by comparing the percentage of tumor uptake of the three compounds in tumors and the respective target-to-non-target ratios. Biodistribution data outlined some differences in organ uptake compared with those attained in rats at the same injection time because the rate of metabolism is different in each animal species. […] The high renal uptake of radiotracers is partially due to their rate of excretion as well as to a specific uptake by integrins expression in the kidneys; for ^99mTc3, the M21-to-kidney ratio was 1.37.
Human melanoma M21(αvβ3-positive) were injected subcutaneously (s.c. 1 × 10^6 cells) in the right flank of six week-old male NSG mice (Charles River Laboratories). As a negative control, M21L (αvβ3-negative) were inoculated s.c. (1 × 10^6 cells) in the left flank of the same mice. Fifteen days after the inoculation, when the tumors are palpable (5–3 mm), the mice were injected in the tail vein with the selected radiolabeled peptide (20 µCi/100 µL of PBS). A group of six animals was sacrificed at 120 min p.i. by CO2 inhalation. A sample of blood was collected and tumors and normal tissues of interest were dissected, rinsed to remove the excess of blood, weighted, and their radioactivity measured using a NaI counter. Results are expressed as the percentage of injected activity per gram (% IA/g) and tumor-to-organ ratios were calculated.

[2] = test system: human melanoma M21 (αvβ3 positive) cells; test: Cell uptake and internalization in M21 cells; format: cell-based; conditions: for cell uptake (sum of surface bound and internalized radioactivity), blocked: M21 blocked by an excess of cold cRGDfK; for cell uptake (sum of surface bound and internalized radioactivity), blocked / cell uptake (sum of surface bound and internalized radioactivity): 37 °C, 90 min; for cell uptake (sum of surface bound and internalized radioactivity): M21 unblocked; for specific/nonspecific ratio, internalized radioactivity only: melanoma cell lines
Protocol: Cell uptake and internalization studies were performed on receptor-positive human melanoma M21 (expressing high levels of αvβ3 integrin and moderate level of integrin αvβ5), human breast cancer MCF7 (exclusively expressing αvβ5), and receptor-negative human melanoma M21L cell lines. The expression of αvβ3 and αvβ5 by cells was already evaluated by flow cytometry (Table 2). The stability of each radiolabeled peptide in the culture media before and after cell exposure was assessed.
Experiments were conducted in suspension at 37 °C. The working conditions were set up to avoid cell damage and/or death. With the use of these information, the cells were pre-incubated in sterile glass tubes at 37 °C for 10 min, in the presence or not of cRGDfK pentapeptide (50 µL; 1.65 mM).
Then, 1 mL of the cell suspension (1 × 10^6 cells/mL) was incubated with intermittent agitation with 10 µL (10 µCi) of ^99mTc1–3. At 90 min, the cells were moved in Eppendorf microcentrifuge tubes (1.5 mL) and the incubation was interrupted by centrifugation (3000 rpm for 5 min at 10 °C). The supernatant (S1) was separated from the pellet. The cell pellet was treated 10 min at room temperature with saline acetate buffer (CH3COOH 0.2M/NaCl 0.5 M) to remove the membrane-bound compound. After centrifugation (3000 rpm for 10 min at 10 °C), the supernatant (S2) was separated from the pellet (P1), and each fraction was collected, placed in a separated counting tube, and the activity was measured using a NaI counter (Cobra II, Packard) to estimate both the cell uptake and the internalized fraction.
The uptake of complexes was expressed as percentage cell uptake of the total activity on 10^6 cells (% cell uptake/10^6 cells).
All assessments were conducted in triplicate for three experiments.

[3] = Cysteine (Cys) and Glutathione (GSH) challenge; format: physicochemical; conditions: 37 °C, pH 7.4, 24 h; for % RCP in challenge with L-cysteine: excess free L-cysteine (10 mM); for % RCP in challenge with GSH: excess glutathione
Protocol: The inertness of the radioconjugates under conditions relevant for in vivo applications were assessed by evaluating the stability of ^99mTc1–3 in solution and after incubation (37 °C) with transchelating agents (glutathione and L-cysteine, 10–1 mM, pH 7.4).
Cysteine (Cys) and Glutathione (GSH) Challenge. Challenge experiments were carried out with the purified complex using an excess of Cys or GSH. An aliquot (50 µL) of an aqueous stock solution of cysteine hydrochloride (10 mM or 2 mM) was added to a propylene test tube containing PBS (400 µL, pH 7.4) and the relevant [^99mTc(N)(H2NS-cRGDfK)(PNP)]^+ complex (50 µL). The mixture was vortexed and incubated at 37 °C for 24 h. A control reaction containing an equal volume of water, instead of cysteine hydrochloride, was studied in parallel. At 0.5, 1, 3, and 24 h, aliquots of the reaction mixture were withdrawn and analyzed by HPLC chromatography. A similar procedure was applied using GSH (50 µL, 10 mM) as challenger.

[4] = format: physicochemical
Protocol: To explore the impact of the PNP ligand on the lipophilicity of the complexes, Log Ps in a mixture of n-octanol and PBS were determined. The lipophilicity decreased in the order ^99mTc1 > ^99mTc2 > ^99mTc3. The lipophilic character of each compound correlated well with the corresponding HPLC retention time and protein binding behavior.
Determination of log P values. n-Octanol/PBS partition coefficients were determined by vortex mixing (20 min) 3.0 mL of n-octanol, 3.0 mL of PBS and 100 µL of the radiolabeled compound purified as above. After centrifugation (3000 g for 10 min), aliquots (100 µL) of both the organic and the aqueous phases were collected and counted with a γ-counter.

| Substance | M21/M21L ratio [1] | M21/blood ratio [1] | M21/kidneys ratio [1] | M21/liver ratio [1] | M21/lung ratio [1] | M21/muscle ratio [1] | M21L tumor uptake [1] [%IA/g] | M21 tumor uptake [1] | Blood [1] [%IA/g] | Heart [1] [%IA/g] | Intestine [1] [%IA/g] | Kidneys [1] [%IA/g] | Liver [1] [%IA/g] | Lungs [1] [%IA/g] | Muscle [1] [%IA/g] | Spleen [1] [%IA/g] | Stomach [1] [%IA] | cell uptake (sum of surface bound and internalized radioactivity), blocked [2] [% cell uptake/10^6 cells] | cell uptake (sum of surface bound and internalized radioactivity) [2] [% cell uptake/10^6 cells] | specific/nonspecific ratio, internalized radioactivity only [2] | further results |
| --- | --- | --- | --- | --- | --- | --- | --- | --- | --- | --- | --- | --- | --- | --- | --- | --- | --- | --- | --- | --- | --- |
| [Tc(N)(H2NS-cRGDfK)(PNP3)]^+ [^99mTc1] | 1.83 | 29.96 | 0.77 | 0.88 | 2.53 | 9.15 | 1.73 ± 0.19 | 3.2 ± 0.6 %IA/g and 3.17 ± 0.60 %IA/g | 0.07 ± 0.02 | 0.47 ± 0.03 | 2.30 ± 0.10 | 4.10 ± 0.37 | 3.59 ± 0.31 | 1.25 ± 0.23 | 0.37 ± 0.04 | 1.61 ± 0.01 | 1.22 ± 0.15 | 2.15 ± 0.17 | 2.88 ± 0.09 | 4.5 | % RCP in challenge with L-cysteine [3]: > 95%; % RCP in challenge with GSH [3]: > 95%; Log P [4]: −1.72 ^1 |
| [Tc(N)(H2NS-cRGDfK)(PNP3OH)]^+ [^99mTc3] | 5.60 | 73.42 | 1.23 | 1.11 | 2.98 | 16.72 | 0.70 ± 0.16 | 3.9 ± 0.7 %IA/g and 3.92 ± 0.69 %IA/g | 0.05 ± 0.01 | 0.44 ± 0.09 | 3.09 ± 0.62 | 3.34 ± 0.18 | 3.22 ± 0.24 | 1.32 ± 0.20 | 0.23 ± 0.03 | 1.43 ± 0.19 | 1.05 ± 0.14 | 1.41 ± 0.25 | 2.60 ± 0.36 | 4.29 | % RCP in challenge with L-cysteine [3]: 27.31 ± 3.6%; % RCP in challenge with GSH [3]: 73.33 ± 2.8%; Log P [4]: −2.39 |
| [Tc(N)(H2NS-cRGDfK)(PNP43)]^+ [^99mTc2] | 2.57 | 11.26 | 0.32 | 0.44 | 1.04 | 3.54 | 0.42 ± 0.05 | 1.1 ± 0.2 %IA/g and 1.08 ± 0.24 %IA/g | 0.12 ± 0.03 | 0.48 ± 0.07 | 2.45 ± 0.29 | 3.38 ± 0.36 | 2.43 ± 0.23 | 1.04 ± 0.08 | 0.31 ± 0.05 | 1.26 ± 0.04 | 1.02 ± 0.16 | 1.48 ± 0.12 | 2.57 ± 0.42 | 3.28 | % RCP in challenge with L-cysteine [3]: > 95%; % RCP in challenge with GSH [3]: > 95%; Log P [4]: −1.95 |
